Test results: patent US11278600B2, “Human alpha-galactosidase variants” (Codexis, Inc., priority 2014, dated 2022)

What was measured:
Type in all cases: biochemical
[1] = HTP-analysis of supernatants pretreated with base (MUGal hydrolysis); conditions: activity of the variant/activity of Rd3BB (SEQ ID NO: 13); challenge at pH 9.7
Outline: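 GLA variants were secreted by transformed INVSc1 yeast grown 66-84 h at 30° C. Supernatants were exposed to neutral-to-basic buffers (pH 7.0-9.7) at 37° C for 1-18 h, then assayed with MUGal in acidic citrate/McIlvaine buffer, with fluorescence read after quenching.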

[2] = HTP-analysis of supernatants pretreated with acid (MUGal hydrolysis); conditions: activity of the variant/activity of Rd3BB (SEQ ID NO: 13); challenge at pH 3.7
Outline: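 Supernatants from INVSc1 yeast secreting GLA variants were challenged at 37° C. for 1-3 h in McIlvaine buffer at pH 3.3-4.3. Residual activity was then measured on 4 mM MUGal substrate stock at pH 4.8 with citrate buffer pH 4.3, over 30-180 min at 37° C. Reactions were quenched with sodium carbonate and read by fluorescence (Ex 355/Em 448 nm).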

[3] = HTP-analysis of yeast culture supernatants, no challenge (MUGal hydrolysis); conditions: activity of the variant/activity of Rd3BB (SEQ ID NO: 13)
Outline: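 GLA variants were expressed in INVSc1 yeast grown in SD-Ura broth with glucose at 30° C., and culture supernatants were collected after 66-84 h. Supernatant was mixed with McIlvaine buffer pH 4.8 and MUGal (2 mM stock) in 50 mM citrate, 200 mM KCl, pH 4.6, incubated at 37° C. for 30-180 minutes, then quenched with sodium carbonate.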

| Molecule | Relative Activity of GLA Variants After Challenge at pH 9.7 [1] | Relative Activity of GLA Variants After Challenge at pH 3.7 [2] | Relative Activity of GLA Variants After No Challenge (NC) [3] |
| --- | --- | --- | --- |
| 562 (protein, Synthetic Polypeptide sequence of Variant No. 562 of mature Human GLA) LDNGLARTPTMGWLHWERFMCNLDCQEEPDSCISEKLFMEMAERMVSEGWKDAGYEYLCIDDCWMAPQRDSEGRLQADPQRFPHGIRQLANHVHSKGLKLGIYADVGNKTCAGFPGSFGYYDIDAQTFADWGVDLLKFDGCYCDSLENLADGYKHMSLALNRTGRSIVYSCEWPLYMWPFQKPNYTEIRQYCNHWRNFADIDDSWASIKSILDWTSRNQERIVDVAGPGGWNDPDMLVIGNFGLSWDQQVTQMALWAIMAAPLFMSNDLRHISPQAKALLQDKDVIAINQDPLGKQGYQLRKGDNFEVWERPLSGDAWAVAIINRQEIGGPRSYTIPVASLGKGVACNPACFITQLLPVKRQLGFYNNTSRLKSHINPTGTVLLQLENTMQMSLKDLL | ++ (++ = >5 to 10 relative activity over Rd3BB (SEQ ID NO: 13)) | + (+ = 1.5 to 5 relative activity over Rd3BB (SEQ ID NO: 13)) | + (+ = 1.5 to 5 relative activity over Rd3BB (SEQ ID NO: 13)) |
| 564 (protein, Synthetic Polypeptide sequence of Variant No. 564 of mature Human GLA) LDNGLARTPTMGWLHWERFMCNLDCQEEPDSCISEKLFMEMAERMVSEGWKDAGYEYLCIDDCWMAPQRDSEGRLQADPQRFPHGIRQLANHVHSKGLKLGIYADVGNKTCAGFPGSFGYYDIDAQTFADWGVDLLKFDGCYCDSLENLADGYKHMSLALNRTGRSIVYSCEWPLYMWPFQKPNYTEIRQYCNHWRNFADIDDSWASIKSILDWTSRNQERIVDVAGPGGWNDPDMLVIGNFGLSWDQQVTQMALWAIMAAPLFMSNDLRHISPQAKALLQDKDVIAINQDPLGKQGYQLRKGDNFEVWERPLSGDAWAVAIINRQEIGGPRSYTIPVASLGKGVACNPACFITQLLPVKRQLGFYNVTSRLKSHINPTGTVLLQLENTMQMSLKDLL | ++ (++ = >5 to 10 relative activity over Rd3BB (SEQ ID NO: 13)) | + (+ = 1.5 to 5 relative activity over Rd3BB (SEQ ID NO: 13)) | + (+ = 1.5 to 5 relative activity over Rd3BB (SEQ ID NO: 13)) |
| 563 (protein, Synthetic Polypeptide sequence of Variant No. 563 of mature Human GLA) LDNGLARTPTMGWLHWERFMCNLDCQEEPDSCISEKLFMEMAERMVSEGWKDAGYEYLCIDDCWMAPQRDSEGRLQADPQRFPHGIRQLANHVHSKGLKLGIYADVGNKTCAGFPGSFGYYDIDAQTFADWGVDLLKFDGCYCDSLENLADGYKHMSLALNRTGRSIVYSCEWPLYMWPFQKPNYTEIRQYCNHWRNFADIDDSWASIKSILDWTSRNQERIVDVAGPGGWNDPDMLVIGNFGLSWDQQVTQMALWAIMAAPLFMSNDLRHISPQAKALLQDKDVIAINQDPLGKQGYQLRKGDNFEVWERPLSGDAWAVAIINRQEIGGPRSYTIPVASLGKGVACNPACFITQLLPVKRQLGFYNRTSRLKSHINPTGTVLLQLENTMQMSLKDLL | ++ (++ = >5 to 10 relative activity over Rd3BB (SEQ ID NO: 13)) | + (+ = 1.5 to 5 relative activity over Rd3BB (SEQ ID NO: 13)) | + (+ = 1.5 to 5 relative activity over Rd3BB (SEQ ID NO: 13)) |
